Assay results published in PMC11970713 (The FEBS journal, 2024).

Molecular target: the molecule itself
Experiment: native gel or EMSA

B1: Full length wild-type LpCopA (copper-transporting P1B-1-ATPase from Legionella pneumophila, Lpg1024) (natural protein)
chain: not shown
stoichiometry N: 2
